Values of other authors, collected in PMC8314067.
Where two headings read alike, the source gives them in different places.

Columns and labels:
[1] = biological target: type II receptor complex (IL-4Rα/IL-13Rα1) (Homo sapiens) (UniProt P24394)
[2] = biological target: type I receptor complex (IL-4Rα/γc) (Homo sapiens) (UniProt P24394)
[3] = biological target: type II receptor complex (IL-4Rα/IL-13Rα1) (Homo sapiens) (UniProt P24394); remark: listed apart in the source

Kd [1] [nM] | Kd [2] [nM] | Kd [3] [nM] | Substance
487 | 559 | – | IL-4 (from UniProt P05112)
– | – | 20 | IL-13 (from UniProt P35225)
